This note sets out measurements from patent EP0730651B1.

Assay [1] addresses soluble KGF receptor (FGFR(IIIb); K-sam) alkaline phosphatase fusion (FRAP) (murine) (UniProt P21803). As to the kind of experiment: displacement of 125I-FGF-7 from soluble FGFR2(IIIb)-AP. (Loss of bound radioactivity is the signal in a displacement assay; it reports binding, not function.)
For assay [2] the target is unchanged. As to the kind of experiment: competition with 125I-FGF-7, receptor binding experiments like those of Example 6.

Chain of UniProt P21803 (P21803 22-377): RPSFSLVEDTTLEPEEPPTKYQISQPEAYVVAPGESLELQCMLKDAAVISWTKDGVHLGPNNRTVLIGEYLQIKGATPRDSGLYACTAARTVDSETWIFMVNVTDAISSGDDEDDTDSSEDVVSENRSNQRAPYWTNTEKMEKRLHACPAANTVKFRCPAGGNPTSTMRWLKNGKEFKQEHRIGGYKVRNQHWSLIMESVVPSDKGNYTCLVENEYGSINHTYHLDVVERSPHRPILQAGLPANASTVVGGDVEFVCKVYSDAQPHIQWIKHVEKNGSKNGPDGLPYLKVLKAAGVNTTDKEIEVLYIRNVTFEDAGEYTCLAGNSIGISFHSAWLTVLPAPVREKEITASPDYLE

“FGF-2LA (human FGF-2 with surface loop residues 118 to 122 replaced by the corresponding bovine FGF-1 sequence) (ligand)” returned a fold weaker binding than FGF-7 or FGF-1 in assay [1] of 5 times less.
“FGF-2LK (FGF-2 loop mutant containing the 9-residue loop sequence Ala-Lys-Trp-Thr-His-Asn-Gly-Gly-Glu from FGF-7) (from UniProt P09038 1-117; P09038 123-155) (ligand)” yielded a fold weaker potency of competition than unlabelled FGF-7 in assay [2] of 100 times weaker.
